Data on two molecules can be found in PMC6669920, “Identification of a basal system for unwinding a bacterial chromosome origin”.

One data set addresses DnaA I190A (Bacillus subtilis, UniProt P05648 1-446, I190A). The data set can be described thus: EMSA; 1 mM ADP; shift similar to wild-type; EMSA: 25 nM scaffold, 0-250 nM DnaA, 10 mM HEPES-KOH pH 8, 100 mM potassium glutamate, 1 mM magnesium acetate, 30% glycerol, 10% DMSO, 1 mM ADP or ATP, 20°C 2 h; 6% PAGE in 45 mM Tris, 45 mM boric acid, 5 mM MgCl2. To be noted: protein: recombinant; tags: N-terminal His-tag removed with Factor Xa; label: 5' Cy3 on strand 1; 5' Cy5 on strand 2; blunt; 3 strands, nick between strands 1 and 2, both annealed to strand 3.

Data set [1] concerns the target T1, DnaA wild-type (Bacillus subtilis, UniProt P05648 1-446). Put plainly: EMSA; 1 mM ADP; single shifted species; EMSA: 25 nM scaffold, 0-250 nM DnaA, 10 mM HEPES-KOH pH 8, 100 mM potassium glutamate, 1 mM magnesium acetate, 30% glycerol, 10% DMSO, 1 mM ADP or ATP, 20°C 2 h; 6% PAGE in 45 mM Tris, 45 mM boric acid, 5 mM MgCl2. To be noted: protein: recombinant; tags: N-terminal His-tag removed with Factor Xa; label: 5' Cy3 on strand 1; 5' Cy5 on strand 2; blunt; 3 strands, nick between strands 1 and 2, both annealed to strand 3.

Data set [2] has as its target T1, DnaA wild-type. Put plainly: EMSA; 1 mM ADP; up to 250 nM DnaA; EMSA: 25 nM scaffold, 0-250 nM DnaA, 10 mM HEPES-KOH pH 8, 100 mM potassium glutamate, 1 mM magnesium acetate, 30% glycerol, 10% DMSO, 1 mM ADP or ATP, 20°C 2 h; 6% PAGE in 45 mM Tris, 45 mM boric acid, 5 mM MgCl2. The following applies: protein: recombinant; tags: N-terminal His-tag removed with Factor Xa; label: 5' Cy5 on strand 2; blunt; 3 strands, nick between strands 1 and 2, both annealed to strand 3.

B1: Wild-type short scaffold (DnaA-box#6/7 + DnaA-trios), oHM752/oHM590/oHM558 (dsDNA)
DNA 1: ACTTATCCACAAATCCACAGGCCC
DNA 2: TACTATTACTTCTACTA
DNA 3: TAGTAGAAGTAATAGTAGGGCCTGTGGATTTGTGGATAAGT
As for B1, the binding result with DnaA I190A and with DnaA wild-type [1] was “binds” each time.

B2: ΔDnaA-boxes long scaffold, oHM753/oHM590/oHM754 (dsDNA)
DNA 1: CGTTCGGCTGCGGCGAGCGGTATCAGCTCACTCAAAGGCGGTAATACGGCTTCCTTGCTTCCTTGCGGCCC
DNA 2: TACTATTACTTCTACTA
DNA 3: TAGTAGAAGTAATAGTAGGGCCGCAAGGAAGCAAGGAAGCCGTATTACCGCCTTTGAGTGAGCTGATACCGCTCGCCGCAGCCGAACG
As to B2, the binding result with DnaA wild-type [2] is “no binding”.
